The chains are these.
B1: BAP-143-wildtype (antibody, V domains shown)
VH: EVQLVESGGGLVQPGGSLRLSCAASGFTFSSYNMNWVRQAPGKGLEWVSYISSSSSTIYYADSVKGRFTISRDNAKNSLSLQMNSLRDEDTAVYYCARAYYYGMDVWGQGTTVTVSS
VL: DIQMTQSPSSVSASVGDRVTITCRASQGISGWLAWYQQKPGKAPKFLIYAASTLQSGVPSRFSGSGSGTDFTLTISSLQPEDFATYYCQQANSFPPTFGGGTKVEIK
notes: 150 kDa used in SPR; also called BAP143-00-00; benchmark (BM)
B2: BAP-143-06-33-03 (antibody, V domains shown)
VH: QVQLVQSGAEVKKPGASVKVSCKASGFTFSSYNMNWVRQARGQRLEWIGYISSSSSTIYYADSVKGRFTISRDNSKNTLYLQMNSLRAEDTAVYYCARAYYYGMDKWGQGTLVTVSS
VL: B1 VL with F94E
notes: Used as a conjugate with a linker payload (CAB ADC)
B3: BAP-143-06-24-16 (antibody, V domains shown)
VH: EVQLVQSGAEVKKPGATVKISCKVSGFTFSSYNMNWIRQSPSRGLEWLGYISSSSSTIYYADSVKGRFTISRDNSKNTLYLQMNSLRAEDTAVYYCARAYYYGDDVWGQGTLVTVSS
VL: B1 VL with R24H
notes: as for B2
B4: BAP-143-07-03-12 (antibody, V domains shown)
VH: B1 VH with V106K
VL: B1 VL with L33E
notes: as for B2
B5: BAP-143-06-33-16 (antibody, V domains shown)
VH: B3 VH
VL: B1 VL with L33E
notes: as for B2
B6: BAP-143-00-06 (antibody, V domains shown)
VH: B1 VH with M104D
VL: B1 VL
notes: as for B2
B7: BAP-143-00-04 (antibody, V domains shown)
VH: B1 VH with M34D
VL: B1 VL
notes: as for B2
B8: BAP-143-00-05 (antibody, V domains shown)
VH: B1 VH with R98E
VL: B1 VL
notes: as for B2
B9: BAP-143-00-03 (antibody, V domains shown)
VH: B1 VH
VL: B1 VL with P96D
notes: as for B2
B10: BAP-143-00-01 (antibody, V domains shown)
VH: B1 VH
VL: B1 VL with L33E
notes: as for B2

As a reminder, the EC50 is the concentration that produces a half-maximal response. As usually defined, the Kd is the constant that tells how readily two partners part at equilibrium. The low end stands for a tighter complex, the high end for a looser complex. The koff is a measure of how fast the partners let go of each other. A word on the kon: it is the rate constant with which the complex forms. Lower therefore signals slow association.

Changes are numbered by the printed parent chain.

The first test addresses T1, cynoNectin4 antigen (cynomolgus (cyno), UniProt A0A2K5WES1 32-349).
T1 construct: construct not described; also called cynomolgus (cyno) Nectin-4
T1 sequence: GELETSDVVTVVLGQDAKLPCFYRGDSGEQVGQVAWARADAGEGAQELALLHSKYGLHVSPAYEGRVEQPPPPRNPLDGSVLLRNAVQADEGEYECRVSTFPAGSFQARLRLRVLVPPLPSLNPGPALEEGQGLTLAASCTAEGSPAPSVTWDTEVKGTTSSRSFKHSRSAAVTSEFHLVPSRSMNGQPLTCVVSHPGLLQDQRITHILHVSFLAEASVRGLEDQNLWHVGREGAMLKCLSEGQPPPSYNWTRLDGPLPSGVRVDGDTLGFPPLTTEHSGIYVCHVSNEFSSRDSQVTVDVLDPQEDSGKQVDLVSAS
The experiment in a line: ELISA, coated antigen, PSB pH 6.0. As for the experimental part: (§1) 1) Coat ELISA plates with 100 μL of 1 μg/mL recombinant human Nectin4 antigen or cynoNectin4 antigen in carbonate-bicarbonate coating buffer. […] 2) Cover plates with sealing film and incubate overnight at 4° C. [0444] 3) Decant plates and tap out residual liquid on a stack of paper towels. [0445] 4) Wash wells twice by dispensing 200 μL of pH 6.0 or pH 7.4 ELISA incubation buffer to the wells and completely aspirate the contents. [0446] 5) Add 200 μL of pH 6.0 or pH 7.4 ELISA incubation buffer to the wells. Cover with sealing film and place the plate onto a plate shaker set to 50 rpm for 60 minutes at room temperature. [0447] 6) Decant plates and tap out residual liquid on a stack of paper towels. […] 7) Serially dilute test articles in 3-fold dilutions starting at 3000 ng/mL in pH 6.0 or pH 7.4 ELISA incubation buffer. […] 8) Add 100 μL/well of diluted test articles to the plates [0450] 9) Cover with sealing film and place the plates onto a plate shaker set to 50 rpm for 60 minutes at room temperature. [0451] 10) Decant plates and tap out residual liquid on a stack of paper towels. [0452] 11) Wash wells three times by dispensing 200 μL of pH 6.0 or pH 7.4 ELISA wash buffer to the wells and completely aspirate the contents. […] 12) Dilute the HRP secondary antibody at 1:2500 in pH 6.0 or pH 7.4 ELISA incubation buffer. [0454] […] 14) Cover with sealing film and place the plates onto a plate shaker set to 50 rpm for 60 minutes at room temperature. […] 15) Decant plates and tap out residual liquid on a stack of paper towels. […] 16) Wash wells three times by dispensing 200 μL of pH 6.0 or pH 7.4 ELISA wash buffer to the wells and completely aspirate the contents. [0458] 17) Dispense 50 μL per well of the TMB substrate solution into all wells of the plates.
Molecule B1 displayed a 50% effective concentration (EC50) of 0.0146 µg/mL.

B2 yielded an EC50 of 0.0395 µg/mL.

Consider B3, for which the EC50 was found to be 0.0261 µg/mL.

For B4, a half-maximal response (EC50) required 0.0239 µg/mL.

Regarding B5, the half-maximal effective concentration (EC50) turned out to be 0.0384 µg/mL.

In a further test the target is T2, recombinant human Nectin4 antigen (human, UniProt Q96NY8 32-349).
T2 construct: construct not described
T2 sequence (looked up): T1 sequence with A39V, V230I
The experiment in a line: ELISA, coated antigen, PSB pH 7.4. As for the experimental part: as §1
For orientation: An ELISA detects its analyte on a solid surface through an enzyme-linked reagent.
Take B1: the half-maximal effective concentration (EC50) was found to be 0.0202 µg/mL.

Turning to B6, the EC50 was 0.0698 µg/mL.

Consider B7, for which the concentration for a half-maximal effect (EC50) came to 0.061 µg/mL.

Take B8: the EC50 is 0.141 µg/mL.

In the case of B9, the EC50 amounted to 0.245 µg/mL.

The target in the next test is T1, cynoNectin4 antigen. The experiment in a line: ELISA, coated antigen, PSB pH 7.4. As for the experimental part:
as §1
As to B1, the concentration for a half-maximal effect (EC50) was found to be 0.0128 µg/mL.

For B2, a half-maximal response (EC50) required 0.0723 µg/mL.

Molecule B3 came in with an EC50 of 0.0282 µg/mL.

B4 returned a half-maximal effective concentration (EC50) of 0.086 µg/mL.

A further test deals with T3, huNectin4-His (human, UniProt Q96NY8 32-349).
T3 construct: Immobilized on the SPR chip; also called humanNectin4; human Nectin4; not shown: His tag
T3 sequence (looked up): T1 sequence with A39V, V230I
The experiment in a line: SPR, huNectin4-His immobilized, pH 6.5. As for the experimental part:
Binding kinetics of anti-Nectin4 antibodies were measured by surface plasmon resonance using a SPR2/4 instrument (Sierra Sensors, Hamburg, Germany) and flat amine sensor chips. The SPR sensor contained four flow cells (FC1-FC4), each of which was addressed individually or in groups. huNectin4-His was immobilized in FC2, and cynoNectin4-mFc in FC4. No protein was immobilized in FC1 and FC3 which were used as control surfaces for FC2 and FC4, respectively.
All injections were done at a flow rate of 25 μL/min at 25° C. The sensor surface was activated with 1-ethyl-3-(3-dimethylaminopropyl)-carbodiimide (EDC) and N-hydroxysuccinimide (NHS) (200 mM/50 mM) for 480 seconds. HuNectin4-His (2 μg/mL in 10 mM NaAc, pH4.5) was injected for 480s and the surface was inactivated by injecting 1M ethanolamine-HCl for 480s. CynoNectin4 was immobilized using the same conditions as described for huNectin4-His, except that the cynoNectin4 was diluted into 10 mM NaAc buffer having pH 5.0. The control surface was activated and deactivated using the same conditions, but without injecting protein. PBST buffer (PBS pH 7.4 with 0.05% TWEEN20™) was used as running buffer for the surface preparation. The running solution was switched to PBST with 30 mM sodium bicarbonate with the pH adjusted as indicated in the figures before the analyte injections. The instrument was equilibrated with the running solution for one hour before the first analyte injection.
The off-rate was measured for 360s. The chip surface was regenerated after each cycle of interaction analysis by injecting 6 μL of 10 mM glycine (pH 2.0). Flow cells 1 and 3 without immobilized protein were used as control surfaces for reference subtraction.
On the technique in general: SPR reads the build-up and loss of mass on a sensor chip optically.
B1 registered an equilibrium dissociation constant (Kd) of 0.102 nM.

Turning to B3, the Kd was 0.00487 nM, the off-rate constant (koff) was 9.92e-06 s⁻¹ and the on-rate (kon) was found to be 2.04e+06 M⁻¹ s⁻¹.

Take B10: binding was put at a Kd of 0.785 nM, the off-rate (koff) worked out at 0.000474 s⁻¹ and the kon worked out at 605000 M⁻¹ s⁻¹.

With B4, binding was put at a Kd of 0.641 nM, the koff came out at 0.000483 s⁻¹ and the kon was 754000 M⁻¹ s⁻¹.

With B5, the affinity, expressed as Kd, was 0.0282 nM; the off-rate constant (koff) worked out at 5.94e-05 s⁻¹; the kon worked out at 2.11e+06 M⁻¹ s⁻¹.

The target of another test is T4, human Nectin-4 on cells (human, UniProt Q96NY8 32-510).
T4 construct: whole, on cells; also called HEK293 cells expressing human Nectin-4; T47D cells that express human Nectin-4
T4 sequence (looked up): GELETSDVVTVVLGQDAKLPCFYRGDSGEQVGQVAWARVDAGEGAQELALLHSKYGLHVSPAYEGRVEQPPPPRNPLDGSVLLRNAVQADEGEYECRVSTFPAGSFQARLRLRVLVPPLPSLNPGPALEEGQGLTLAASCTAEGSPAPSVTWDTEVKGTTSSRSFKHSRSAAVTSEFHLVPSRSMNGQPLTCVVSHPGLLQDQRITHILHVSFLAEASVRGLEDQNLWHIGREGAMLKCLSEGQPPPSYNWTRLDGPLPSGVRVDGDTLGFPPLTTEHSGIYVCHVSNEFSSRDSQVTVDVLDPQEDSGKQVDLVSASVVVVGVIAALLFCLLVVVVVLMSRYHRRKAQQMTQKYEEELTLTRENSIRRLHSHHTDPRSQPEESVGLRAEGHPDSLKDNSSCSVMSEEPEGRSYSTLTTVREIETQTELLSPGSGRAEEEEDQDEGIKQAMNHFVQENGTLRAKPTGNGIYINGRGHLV
The experiment in a line: FACS, HEK293 cells expressing human Nectin-4. As to the method: FACS analysis was carried out using HEK293 cells expressing human Nectin-4.
With B2, the “Ratio (pH 7.4/6.0) of EC50” value came to 2.8.

As to B3, the “Ratio (pH 7.4/6.0) of EC50” value came to 1.4.

For the molecule B10, the “Ratio (pH 7.4/6.0) of EC50” value was determined as 2.2.

With B4, the “Ratio (pH 7.4/6.0) of EC50” value was determined as 2.

With B5, the “Ratio (pH 7.4/6.0) of EC50” value was 1.5.

The record behind these values is patent publication US20230235054A1 (BIOATLA, published 2023).
